Source: paper PMC2778851

How the values were obtained:
[1] = target: His-HTLV-1 125 PR (N-terminally His-tagged full-length stabilized HTLV-1 protease) (Human T-lymphotropic virus type 1 (HTLV-1)); assay: pull-down
[2] = target: HTLV-1 120 PR (HTLV-1 protease shortened by 5 C-terminal residues) (Human T-lymphotropic virus type 1 (HTLV-1)); assay: activity-based dimerization assay
[3] = target: HTLV-1 125 PR (stabilized full-length HTLV-1 protease) (Human T-lymphotropic virus type 1 (HTLV-1)); assay: activity-based dimerization assay
[4] = target: HTLV-1 125 PR (stabilized full-length HTLV-1 protease) (Human T-lymphotropic virus type 1 (HTLV-1)); assay: SEC

Substance: HTLV-1 115 PR (HTLV-1 protease shortened by 10 C-terminal residues) (domain or fragment)
- densitometric ratio of the untagged to the His-tagged band (115/H125) [1]: 37.3

Substance: HTLV-1 120 PR (HTLV-1 protease shortened by 5 C-terminal residues) (domain or fragment)
- Kd [2]: > 3000 nM
- densitometric ratio of the untagged to the His-tagged band (120/H125) [1]: 37.2

Substance: HTLV-1 125 PR (stabilized full-length HTLV-1 protease) (enzyme)
- Kd [3]: 491 nM
- densitometric ratio of the untagged to the His-tagged band (125/H125) [1]: 84.9
- stoichiometry N [4]: 2
